{"source": "paper PMC4332414", "origin": "cited, not measured here", "target": "Collagen type II (UniProt P02458)", "sequence (P02458 182-1241)": "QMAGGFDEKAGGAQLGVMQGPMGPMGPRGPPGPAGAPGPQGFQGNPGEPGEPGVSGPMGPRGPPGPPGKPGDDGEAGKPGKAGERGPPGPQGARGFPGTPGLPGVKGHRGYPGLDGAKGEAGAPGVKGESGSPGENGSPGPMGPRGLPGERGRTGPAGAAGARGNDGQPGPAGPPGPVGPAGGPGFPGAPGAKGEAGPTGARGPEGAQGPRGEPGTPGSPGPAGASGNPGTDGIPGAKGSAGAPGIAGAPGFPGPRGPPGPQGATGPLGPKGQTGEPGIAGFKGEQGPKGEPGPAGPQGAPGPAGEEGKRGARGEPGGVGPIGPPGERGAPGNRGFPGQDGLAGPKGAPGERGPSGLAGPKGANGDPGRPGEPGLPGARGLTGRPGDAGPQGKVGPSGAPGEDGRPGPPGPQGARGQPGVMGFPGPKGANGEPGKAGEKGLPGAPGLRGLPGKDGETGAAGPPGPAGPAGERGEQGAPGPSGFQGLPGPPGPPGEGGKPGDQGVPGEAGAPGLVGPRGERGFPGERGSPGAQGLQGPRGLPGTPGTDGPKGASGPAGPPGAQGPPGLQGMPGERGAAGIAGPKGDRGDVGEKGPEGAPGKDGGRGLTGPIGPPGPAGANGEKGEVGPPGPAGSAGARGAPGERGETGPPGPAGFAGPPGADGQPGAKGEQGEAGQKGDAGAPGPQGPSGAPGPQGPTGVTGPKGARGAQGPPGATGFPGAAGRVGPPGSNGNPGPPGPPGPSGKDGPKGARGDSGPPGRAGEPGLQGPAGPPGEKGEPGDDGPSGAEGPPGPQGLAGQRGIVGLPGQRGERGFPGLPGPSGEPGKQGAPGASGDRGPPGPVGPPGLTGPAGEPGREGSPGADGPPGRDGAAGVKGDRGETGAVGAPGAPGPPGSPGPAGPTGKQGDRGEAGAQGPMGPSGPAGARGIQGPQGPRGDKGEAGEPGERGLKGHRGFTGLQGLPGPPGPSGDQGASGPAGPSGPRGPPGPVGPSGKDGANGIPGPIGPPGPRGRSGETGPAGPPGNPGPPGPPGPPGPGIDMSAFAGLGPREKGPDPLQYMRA", "assay": "surface plasmon resonance", "data": [{"substance": "DDR2 DS domain (from UniProt Q16832)", "values": [{"measurement": "Kd", "result": 25, "unit": "µM"}]}]}
